IntAct's records for PubMed 11259577

B1: Insulin receptor substrate 1 (Rattus norvegicus (Rat)), P35570 (parent)
chain: MASPPDTDGFSDVRKVGYLRKPKSMHKRFFVLRAASEAGGPARLEYYENEKKWRHKSSAPKRSIPLESCFNINKRADSKNKHLVALYTRDEHFAIAADSEAEQDSWYQALLQLHNRAKAHHDGAGGGCGGSCSGSSGVGEAGEDLSYDTGPGPAFKEVWQVILKPKGLGQTKNLIGIYRLCLTSKTISFVKLNSEAAAVVLQLMNIRRCGHSENFFFIEVGRSAVTGPGEFWMQVDDSVVAQNMHETILEAMRAMSDEFRPRTKSQSSSSCSNPISVPLRRHHLNNPPPSQVGLTRRSRTESITATSPASMVGGKPGSFRVRASSDGEGTMSRPASVDGSPVSPSTNRTHAHRHRGSSRLHPPLNHSRSIPMPSSRCSPSATSPVSLSSSSTSGHGSTSDCLFPRRSSASVSGSPSDGGFISSDEYGSSPCDFRSSFRSVTPDSLGHTPPARGEEELSNYICMGGKGASTLTAPNGHYILSRGGNGHRYIPGATMGTSPALTGDEAAGAADLDNRFRKRTHSAGTSPTISHQKTPSQSSVVSIEEYTEMMPAAYPPGGGSGGRLPGYRHSAFVPTHSYPEEGLEMHHLERRGGHHRPDSSNLHTDDGYMPMSPGVAPVPSNRKGNGDYMPMSPKSVSAPQQIINPIRRHPQRVDPNGYMMMSPSGSCSPDIGGGSCSSSSISAAPSGSSYGKPWTNGVGGHHTHALPHAKPPVESGGGKLLPCTGDYMNMSPVGDSNTSSPSECYYGPEDPQHKPVLSYYSLPRSFKHTQRPGEPEEGARHQHLRLSSSSGRLRYTATAEDSSSSTSSDSLGGGYCGARPESSVTHPHHHALQPHLPRKVDTAAQTNSRLARPTRLSLGDPKASTLPRVREQQQQQQQQQQSSLHPPEPKSPGEYVNIEFGSGQPGYLAGPATSRSSPSVRCLPQLHPAPREETGSEEYMNMDLGPGRRATWQESGGVELGRVGPAPPGAASICRPTRSVPNSRGDYMTMQIGCPRQSYVDTSPVAPVSYADMRTGIAAEKVSLPRTTGAAPPPSSTASASASVTPQGAAEQAAHSSLLGGPQGPGGMSAFTRVNLSPNHNQSAKVIRADTQGCRRRHSSETFSAPTRAANTVSFGAGAAGGGSGGGSEDVKRHSSASFENVWLRPGDLGGASKESAPGCGAAGGLEKSLNYIDLDLVKDVKQHPQDCPSQQQSLPPPPPHQPLGSNEGSSPRRSSEDLSTYASINFQKQPEDRQ
partner: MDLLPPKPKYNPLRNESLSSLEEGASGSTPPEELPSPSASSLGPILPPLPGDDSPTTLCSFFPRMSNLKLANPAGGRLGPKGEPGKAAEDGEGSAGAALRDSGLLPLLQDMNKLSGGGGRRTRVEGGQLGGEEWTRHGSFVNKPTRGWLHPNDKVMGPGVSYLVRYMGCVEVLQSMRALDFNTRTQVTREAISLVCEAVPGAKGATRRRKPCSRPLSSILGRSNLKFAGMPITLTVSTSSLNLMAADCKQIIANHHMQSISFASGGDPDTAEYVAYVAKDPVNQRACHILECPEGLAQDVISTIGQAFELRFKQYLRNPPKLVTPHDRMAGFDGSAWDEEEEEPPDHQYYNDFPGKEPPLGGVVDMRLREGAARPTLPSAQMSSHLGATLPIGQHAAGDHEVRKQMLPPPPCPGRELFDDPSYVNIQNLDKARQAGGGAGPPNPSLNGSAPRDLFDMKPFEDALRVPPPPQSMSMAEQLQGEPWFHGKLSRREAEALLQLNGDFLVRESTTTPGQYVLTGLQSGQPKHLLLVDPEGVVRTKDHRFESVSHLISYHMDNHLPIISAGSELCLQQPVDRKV

Variants of: B1
Settings: with shc1_mouse Shc1, P98083

| effect of a mutation on the interaction | Variant |
| --- | --- |
| with no effect | Y895F |
